Test results: publication PMC2849673 (Biochemistry, 2010)

Molecular target: the molecule itself
Assay: crystal structure

B1: E-2-(acetamidomethylene)succinate (E-2AMS) hydrolase (enzyme, Mesorhizobium loti MAFF303099, UniProt Q988D4 1-278, looked up)
chain: MDMAADIASDHFISRRVDIGRITLNVREKGSGPLMLFFHGITSNSAVFEPLMIRLSDRFTTIAVDQRGHGLSDKPETGYEANDYADDIAGLIRTLARGHAILVGHSLGARNSVTAAAKYPDLVRSVVAIDFTPYIETEALDALEARVNAGSQLFEDIKAVEAYLAGRYPNIPADAIRIRAESGYQPVDGGLRPLASSAAMAQTARGLRSDLVPAYRDVTKPVLIVRGESSKLVSAAALAKTSRLRPDLPVVVVPGADHYVNEVSPEITLKAITNFIDA
stoichiometry N: 2
